{"source": "paper PMC7229144", "about": "“Tetracycline-inactivating enzymes from environmental, human commensal, and pathogenic bacteria cause broad-spectrum tetracycline resistance” (Communications Biology, 2020)", "key": {"[1]": {"target": "T1, Tet(X7) (human gut metagenome, UniProt Z9HWK3IZF4)", "T1 sequence (Z9HWK3IZF4 21-399 limits assumed)": "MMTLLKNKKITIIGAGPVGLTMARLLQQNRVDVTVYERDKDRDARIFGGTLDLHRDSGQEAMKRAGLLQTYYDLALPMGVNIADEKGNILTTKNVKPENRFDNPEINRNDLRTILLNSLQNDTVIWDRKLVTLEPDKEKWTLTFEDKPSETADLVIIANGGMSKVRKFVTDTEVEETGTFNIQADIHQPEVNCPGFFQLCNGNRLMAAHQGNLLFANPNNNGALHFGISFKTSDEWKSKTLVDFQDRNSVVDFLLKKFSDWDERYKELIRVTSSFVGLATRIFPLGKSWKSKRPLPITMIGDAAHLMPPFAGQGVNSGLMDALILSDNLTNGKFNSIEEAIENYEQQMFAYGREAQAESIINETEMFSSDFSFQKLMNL", "assay_type": "binding", "settings": "FAD in IN-conformation"}, "[2]": {"target": "T1, Tet(X7)", "assay": "absorbance, initial velocity of tigecycline degradation", "assay_type": "biochemical", "settings": "read-out: IC50 (apparent)"}, "[3]": {"tested_on": "CN(C)c1cc(NC(=O)CNC(C)(C)C)c(O)c2c1C[C@H]1C[C@H]3[C@H](N(C)C)C(=O)C(C(N)=O)=C(O)[C@@]3(O)C(=O)C1=C2O", "assay": "purified protein", "settings": "0-40 µM substrate, 504 µM NADPH, 5.04 mM MgCl2, 0.4 µM enzyme, 100 mM TAPS pH 8.5, room temperature"}, "[4]": {"tested_on": "CN(C)c1cc(CNCC(C)(C)C)c(O)c2c1C[C@H]1C[C@H]3[C@H](N(C)C)C(=O)C(C(N)=O)=C(O)[C@@]3(O)C(=O)C1=C2O", "assay": "purified protein", "settings": "0-40 µM substrate, 504 µM NADPH, 5.04 mM MgCl2, 0.4 µM enzyme, 100 mM TAPS pH 8.5, room temperature"}, "[5]": {"tested_on": "CN(C)[C@@H]1C(=O)C(C(N)=O)=C(O)[C@@]2(O)C(=O)C3=C(O)c4c(O)c(NC(=O)CN5CCCC5)cc(F)c4C[C@H]3C[C@@H]12", "assay": "purified protein", "settings": "0-40 µM substrate, 504 µM NADPH, 5.04 mM MgCl2, 0.4 µM enzyme, 100 mM TAPS pH 8.5, room temperature"}}}
{"compound": "Cc1cc2nc3c(=O)[nH]c(=O)nc-3n(C[C@H](O)[C@H](O)[C@H](O)COP(=O)(O)OP(=O)(O)OC[C@H]3O[C@@H](n4cnc5c(N)ncnc54)[C@H](O)[C@@H]3O)c2cc1C", "note": "[FAD]", "values": [{"measurement": "X-ray crystal structure, 2.55 Å", "setting": "[1]", "result": "The FAD in Tet(X7) retains an IN-conformation"}]}
{"compound": "CN(C)[C@@H]1C(=O)C(C(N)=O)=C(O)[C@@]2(O)C(=O)c3c(cc4c(Cl)ccc(O)c4c3O)C[C@@H]12", "note": "[anhydrodemeclocycline]", "values": [{"measurement": "IC50", "setting": "[2]", "result": "260 ± 40", "unit": "nM"}]}
{"compound": "Cc1c2c(c(O)c3c(O)cccc13)C(=O)[C@]1(O)C(=O)C(C(N)=O)=C(O)[C@@H](N(C)C)[C@@H]1C2", "note": "[anhydrotetracycline]", "values": [{"measurement": "IC50", "setting": "[2]", "result": "1060 ± 108", "unit": "nM"}]}
{"compound": "Tet(X7) (uncultured bacterium)", "values": [{"measurement": "Km", "setting": "[3]", "result": "4 ± 0.4", "unit": "µM"}, {"measurement": "kcat", "setting": "[3]", "result": "0.005 ± 0.00017", "unit": "s⁻¹"}, {"measurement": "Km", "setting": "[4]", "result": "4 ± 0.4", "unit": "µM"}, {"measurement": "kcat", "setting": "[4]", "result": "0.0033 ± 0.0001", "unit": "s⁻¹"}, {"measurement": "Km", "setting": "[5]", "result": "6 ± 1", "unit": "µM"}]}
